Experimental data taken from article PMC8510090, “The DNA Recognition Motif of GapR Has an Intrinsic DNA Binding Preference towards AT-rich DNA” (Molecules, 2021).

Experiments:
[1] = target: T1, GapRΔC17 (Caulobacter crescentus, UniProt B8H4R9 1-72); test: NMR titration (1H-15N HSQC); MST: 20 mM PBS, 150 mM NaCl, 0.02% n-dodecyl-β-D-maltoside, pH 7, 20 nM labeled dimer (labeling at room temperature); NMR netropsin competition: 50 mM sodium phosphate, 150 mM NaCl, pH 7.0, 90% H2O/5% D2O (so in the source); details: protein: recombinant; tags: C-terminal His6; chain copies: 2
T1 sequence: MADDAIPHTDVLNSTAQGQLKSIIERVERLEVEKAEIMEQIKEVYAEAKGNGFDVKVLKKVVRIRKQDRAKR

[2] = target: the molecule itself; test: crystal structure; hanging drop vapor diffusion at room temperature; protein 10 mg/mL in 50 mM HEPES pH 7.0, 300 mM NaCl; 0.1 M sodium cacodylate pH 6.0, 15% PEG4000; 2.08 angstrom
[3] = target: T1, GapRΔC17; test: MST; MST: 20 mM PBS, 150 mM NaCl, 0.02% n-dodecyl-β-D-maltoside, pH 7, 20 nM labeled dimer (labeling at room temperature); NMR netropsin competition: 50 mM sodium phosphate, 150 mM NaCl, pH 7.0, 90% H2O/5% D2O (so in the source); details: protein: recombinant, tags: C-terminal His6, chain copies: 2

B1: 3AT DNA (dsDNA)
DNA 1: CGCATATATGCG
DNA 2: CGCATATATGCG
binding result [1]: binds

B2: GapR^ΔC17 (DNA binding domain of GapR, residues 1–72) (domain or fragment, Caulobacter crescentus, UniProt B8H4R9 1-72, looked up)
chain: T1 sequence
notes: GapR, nucleoid-associated protein of Caulobacter crescentus, gene gapr (CCNA_03428), residues 1-72 (the C-terminal 17 residues, most of helix α3, deleted); 8.2 kDa; Cloned into the NdeI and XhoI sites of pET-21a(+) and followed by a C-terminal His6-tag; A selenomethionyl derivative was used for phasing; also called DNA recognition motif of GapR; dimer unit of GapR; source: E. coli Rosetta (DE3), …
binding result [2]: binds

B3: 6CG DNA (dsDNA)
DNA 1: CGCGCGCGCGCG
DNA 2: CGCGCGCGCGCG
Kd [3]: 18 ± 2 µM

B4: 6A DNA (dsDNA)
DNA 1: CGCAAAAAAGCG
DNA 2: CGCTTTTTTGCG
Kd ([3]; blunt): 1.1 ± 0.1 µM
